According to patent US20200071687:

T1: RNase A, P61823
T1 chain: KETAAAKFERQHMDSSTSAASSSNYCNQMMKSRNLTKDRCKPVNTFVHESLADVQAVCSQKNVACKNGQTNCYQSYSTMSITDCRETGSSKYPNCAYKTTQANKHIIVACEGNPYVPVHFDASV

B1: proteinase K (protein)
chain: AAQTNAPWGLARISSTSPGTSTYYYDESAGQGSCVYVIDTGIEASHPEFEGRAQMVKTYYYSSRDGNGHGTHCAGTVGSRTYGVAKKTQLFGVKVLDDNGSGQYSTIIAGMDFVASDKNNRNCPKGVVASLSLGGGYSSSVNSAAARLQSSGVMVAVAAGNNNADARNYSPASEPSVCTVGASDRYDRRSSFSNYGSVLDIFGPGTSILSTWIGGSTRSISGTSMATPHVAGLAAYLMTLGKTTAASACRYIADTANKGDLSNIPFGTVNLLAYNNYQA
B2: Subtilisin Carlsberg variant B24 (protein)
chain: AQTVPYGIPLIKADKVQAQGFKNVKVAVLDTGIQASHPDLNVVGGASFVAGEAYNTDGNGHGTHVAGTVAALGNTTGVLGVAPSVSLYAVKVLNSSGSGSYSGIVSGIEWATTNGMDVINMSLGGASGSTAMKQAVDNAYAKGVVVVAAGNSGSSGNTNTIGYPAKYDSVIAVGAVDSNSNRASFSSVGAELEVMAPGAGYSTYPTNTYATLNGTSMASPHVAGAAALIMSKHPNLSASQVRNRLSSTATYLGSSFYYGKGLINVEAAAPHHHHH

What was measured:
RNase A, P61823 = biological target: T1, RNase A, P61823

Protein	degradation of RNaseA, 1 hour at 37° C. (SDS-PAGE, Coomassie) (RNase A, P61823)	digestion of Ase I, 1 hour at 37° C. (SDS-PAGE, Coomassie) (restriction enzyme Ase I)	digestion of the substrate protein in the presence of detergents (SDS-PAGE, Coomassie) (RNase A, P61823)	digestion of the substrate protein in the presence of detergents (SDS-PAGE, Coomassie) (catalase)
B1	both the subtilisin B24 variant and proteinase K can degrade RNaseA	while Proteinase K cannot		
B2	both the subtilisin B24 variant and proteinase K can degrade RNaseA	subtilisin B24 variant can digest Ase I in one hour at 37 °C	can digest catalase (FIG. 11A) and RNAase (FIG. 11B) up to at least a 2.0% SDS concentration; catalase (FIG. 11C) and RNAase (FIG. 11D) up to at least a 2.0% Triton X-100 concentration; and RNAase (FIG. 11E) up to at least a 2% CTAB concentration	can digest catalase (FIG. 11A) and RNAase (FIG. 11B) up to at least a 2.0% SDS concentration; catalase (FIG. 11C) and RNAase (FIG. 11D) up to at least a 2.0% Triton X-100 concentration
